Measurements reported in publication PMC10104896 (2023).
Where no end group is shown, it is not given here.

Tests used:
12mTau-acK280 peptide [1] = molecular target: T1, 12mTau-acK280 peptide (human); test: BLI
T1 chain: VQIINK(Ac)KLDLSN

12mTau-acK280 peptide [2] = molecular target: T1, 12mTau-acK280 peptide; test: BLI

B1: Y01, monoclonal anti–tau-acK280 antibody (antibody, V domains shown)
VH: QVQLQESGPGLVKPSQTLSLTCTVSGDSITSGYWNWIRQPPGKGLEYIGYIRYSGRTYYNPSLKSRVTISRDTSKNQFSLKLSSVTAADTAVYYCASVYFTYWGQGTLVTVSS
VL: DVVMTQTPLSLPVTLGQPASISCKSSQSLLDSDGKTYLNWFQQRPGQSPKRLISLVSKLDSGVPDRFSGSGSGTDFTLKISRVEAEDVGVYYCWQGSHFPYTFGQGTKLEIK
Kd (12mTau-acK280 peptide [1]): 0.257 nM | koff (12mTau-acK280 peptide [2]): 0.000115 s⁻¹
